Reference: the supplement of paper PMC9112550, “Optimization of the antimicrobial peptide Bac7 by deep mutational scanning” (BMC Biology, 2022)

System: Escherichia coli TOP10
Test: shrunken log2 fold change of peptide-encoding DNA abundance (4.5 h post-induction vs induction); higher = less antimicrobial activity (less host growth inhibition)
Conditions: time post-induction: 4.5 h; library: site-saturation at positions 5, 18, 19, 20
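Further: peptides expressed intracellularly from a pBAD plasmid library in pooled LB shake-flask culture, induced with 0.3% L-arabinose, DNA abundance read by NGS, three biological replicates, DESeq2 with apeglm shrinkage.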

Sequence | shrunken log2 fold change
RRIRMRPPRLPRPRPRPAKTPRP | 0.0368
RRIRMRPPRLPRPRPRPALAPRP | 1.08
RRIRMRPPRLPRPRPRPALCPRP | 0.221
RRIRMRPPRLPRPRPRPALSPRP | 0.539
RRIRMRPPRLPRPRPRPAMLPRP | 1.22
RRIRMRPPRLPRPRPRPAMWPRP | 0.511
RRIRMRPPRLPRPRPRPANMPRP | -0.203
RRIRMRPPRLPRPRPRPAPVPRP | 0.764
RRIRMRPPRLPRPRPRPAQNPRP | 1.07
RRIRMRPPRLPRPRPRPAQSPRP | 2.88
RRIRMRPPRLPRPRPRPARWPRP | 1.49
RRIRMRPPRLPRPRPRPASDPRP | 0.869
RRIRMRPPRLPRPRPRPASHPRP | 0.343
RRIRMRPPRLPRPRPRPASYPRP | 0.0757
RRIRMRPPRLPRPRPRPATMPRP | 0.256
RRIRMRPPRLPRPRPRPAVDPRP | 0.154
RRIRMRPPRLPRPRPRPAVIPRP | -0.1
RRIRMRPPRLPRPRPRPAVKPRP | 0.0878
RRIRMRPPRLPRPRPRPAWHPRP | 0.726
RRIRMRPPRLPRPRPRPCAPPRP | 0.478
RRIRMRPPRLPRPRPRPCATPRP | 2.58
RRIRMRPPRLPRPRPRPCENPRP | 0.0192
RRIRMRPPRLPRPRPRPCEVPRP | -0.181
RRIRMRPPRLPRPRPRPCFDPRP | 0.0386
RRIRMRPPRLPRPRPRPCFEPRP | 0.286

Sequence | shrunken log2 fold change
RRIRMRPPRLPRPRPRPCFPPRP | 0.157
RRIRMRPPRLPRPRPRPCHFPRP | -0.0459
RRIRMRPPRLPRPRPRPCHHPRP | -0.353
RRIRMRPPRLPRPRPRPCILPRP | 0.053
RRIRMRPPRLPRPRPRPCKGPRP | -0.0617
RRIRMRPPRLPRPRPRPCKIPRP | -0.0518
RRIRMRPPRLPRPRPRPCKMPRP | 0.0367
RRIRMRPPRLPRPRPRPCLSPRP | -0.0592
RRIRMRPPRLPRPRPRPCLYPRP | -0.331
RRIRMRPPRLPRPRPRPCNNPRP | 0.0654
RRIRMRPPRLPRPRPRPCNTPRP | -0.238
RRIRMRPPRLPRPRPRPCPRPRP | 0.167
RRIRMRPPRLPRPRPRPCQAPRP | 0.0538
RRIRMRPPRLPRPRPRPCQPPRP | -0.0351
RRIRMRPPRLPRPRPRPCRQPRP | 0.0303
RRIRMRPPRLPRPRPRPCSAPRP | 1.24
RRIRMRPPRLPRPRPRPCSFPRP | 0.0622
RRIRMRPPRLPRPRPRPCSPPRP | 0.0324
RRIRMRPPRLPRPRPRPCSWPRP | 0.0611
RRIRMRPPRLPRPRPRPCTPPRP | 0.154
RRIRMRPPRLPRPRPRPCWEPRP | -0.0572
RRIRMRPPRLPRPRPRPCYPPRP | -0.352
RRIRMRPPRLPRPRPRPDADPRP | 3.36
RRIRMRPPRLPRPRPRPDATPRP | 3.93
RRIRMRPPRLPRPRPRPDEFPRP | 1.49

Sequence | shrunken log2 fold change
RRIRMRPPRLPRPRPRPDHAPRP | 0.0825
RRIRMRPPRLPRPRPRPDHHPRP | -0.111
RRIRMRPPRLPRPRPRPDIEPRP | 1.3
RRIRMRPPRLPRPRPRPDKFPRP | 0.194
RRIRMRPPRLPRPRPRPDMIPRP | -0.00213
RRIRMRPPRLPRPRPRPDMPPRP | -0.0178
RRIRMRPPRLPRPRPRPDNHPRP | -0.21
RRIRMRPPRLPRPRPRPDNPPRP | 0.0534
RRIRMRPPRLPRPRPRPDQLPRP | 0.391
RRIRMRPPRLPRPRPRPDTVPRP | 0.00533
RRIRMRPPRLPRPRPRPDVEPRP | 3.52
RRIRMRPPRLPRPRPRPDWRPRP | 0.276
RRIRMRPPRLPRPRPRPDWWPRP | 0.218
RRIRMRPPRLPRPRPRPEDEPRP | 2.06
RRIRMRPPRLPRPRPRPEECPRP | 0.0665
RRIRMRPPRLPRPRPRPEEIPRP | 0.0117
RRIRMRPPRLPRPRPRPEFWPRP | 0.893
RRIRMRPPRLPRPRPRPEGAPRP | 3.32
RRIRMRPPRLPRPRPRPEGDPRP | 4.15
RRIRMRPPRLPRPRPRPEGFPRP | 2.81
RRIRMRPPRLPRPRPRPEHFPRP | 0.0315
RRIRMRPPRLPRPRPRPEHPPRP | 0.75
RRIRMRPPRLPRPRPRPEHYPRP | -0.0905
RRIRMRPPRLPRPRPRPEILPRP | 0.121
RRIRMRPPRLPRPRPRPEIMPRP | 2.57

Sequence | shrunken log2 fold change
RRIRMRPPRLPRPRPRPEKRPRP | 0.0458
RRIRMRPPRLPRPRPRPELPPRP | 2.29
RRIRMRPPRLPRPRPRPEMAPRP | 3.69
RRIRMRPPRLPRPRPRPEMGPRP | 2.44
RRIRMRPPRLPRPRPRPEMIPRP | 2.2
RRIRMRPPRLPRPRPRPERNPRP | 0.0507
RRIRMRPPRLPRPRPRPEVEPRP | -0.0272
RRIRMRPPRLPRPRPRPEVMPRP | 2.84
RRIRMRPPRLPRPRPRPEVTPRP | 0.053
RRIRMRPPRLPRPRPRPEYEPRP | 0.644
RRIRMRPPRLPRPRPRPEYFPRP | -0.109
RRIRMRPPRLPRPRPRPEYHPRP | -0.00495
RRIRMRPPRLPRPRPRPFCSPRP | 0.0534
RRIRMRPPRLPRPRPRPFCVPRP | 0.00978
RRIRMRPPRLPRPRPRPFEFPRP | -0.044
RRIRMRPPRLPRPRPRPFFGPRP | -0.0869
RRIRMRPPRLPRPRPRPFGAPRP | 0.329
RRIRMRPPRLPRPRPRPFKLPRP | 0.102
RRIRMRPPRLPRPRPRPFKNPRP | 0.129
RRIRMRPPRLPRPRPRPFKVPRP | -0.111
RRIRMRPPRLPRPRPRPFLDPRP | -0.198
RRIRMRPPRLPRPRPRPFLVPRP | -0.0501
RRIRMRPPRLPRPRPRPFMIPRP | -0.0423
RRIRMRPPRLPRPRPRPFMVPRP | -0.161
RRIRMRPPRLPRPRPRPFPPPRP | 0.103

Sequence | shrunken log2 fold change
RRIRMRPPRLPRPRPRPFQLPRP | 0.118
RRIRMRPPRLPRPRPRPFQNPRP | 2.76
RRIRMRPPRLPRPRPRPFREPRP | 0.2
RRIRMRPPRLPRPRPRPFRHPRP | 0.0701
RRIRMRPPRLPRPRPRPFRTPRP | -0.21
RRIRMRPPRLPRPRPRPFRWPRP | -0.0454
RRIRMRPPRLPRPRPRPFSTPRP | -0.0159
RRIRMRPPRLPRPRPRPFTFPRP | -0.096
RRIRMRPPRLPRPRPRPFTSPRP | -0.0967
RRIRMRPPRLPRPRPRPFTWPRP | 0.0653
RRIRMRPPRLPRPRPRPFYFPRP | -0.569
RRIRMRPPRLPRPRPRPFYKPRP | -0.266
RRIRMRPPRLPRPRPRPFYMPRP | -0.054
RRIRMRPPRLPRPRPRPFYVPRP | -0.514
RRIRMRPPRLPRPRPRPGDLPRP | -0.0671
RRIRMRPPRLPRPRPRPGEVPRP | 0.884
RRIRMRPPRLPRPRPRPGFFPRP | 0.423
RRIRMRPPRLPRPRPRPGFWPRP | 0.836
RRIRMRPPRLPRPRPRPGGIPRP | 0.545
RRIRMRPPRLPRPRPRPGGWPRP | 1.32
RRIRMRPPRLPRPRPRPGHCPRP | -0.0518
RRIRMRPPRLPRPRPRPGHIPRP | 0.0817
RRIRMRPPRLPRPRPRPGIIPRP | -0.0597
RRIRMRPPRLPRPRPRPGILPRP | 0.0644
RRIRMRPPRLPRPRPRPGKGPRP | 0.0403

Sequence | shrunken log2 fold change
RRIRMRPPRLPRPRPRPGKKPRP | 0.532
RRIRMRPPRLPRPRPRPGKYPRP | 0.0424
RRIRMRPPRLPRPRPRPGLRPRP | 1.15
RRIRMRPPRLPRPRPRPGMIPRP | -0.00139
RRIRMRPPRLPRPRPRPGNFPRP | 0.121
RRIRMRPPRLPRPRPRPGNQPRP | -0.0232
RRIRMRPPRLPRPRPRPGTSPRP | 0.24
RRIRMRPPRLPRPRPRPGVAPRP | 1.02
RRIRMRPPRLPRPRPRPGVKPRP | 0.172
RRIRMRPPRLPRPRPRPHAGPRP | 0.222
RRIRMRPPRLPRPRPRPHAHPRP | -0.0269
RRIRMRPPRLPRPRPRPHARPRP | 0.299
RRIRMRPPRLPRPRPRPHCDPRP | -0.0833
RRIRMRPPRLPRPRPRPHCNPRP | 0.043
RRIRMRPPRLPRPRPRPHCQPRP | -0.0624
RRIRMRPPRLPRPRPRPHDTPRP | 0.048
RRIRMRPPRLPRPRPRPHESPRP | 0.432
RRIRMRPPRLPRPRPRPHFTPRP | -0.173
RRIRMRPPRLPRPRPRPHGNPRP | -0.184
RRIRMRPPRLPRPRPRPHGTPRP | 0.148
RRIRMRPPRLPRPRPRPHHCPRP | -0.27
RRIRMRPPRLPRPRPRPHLIPRP | 0.133
RRIRMRPPRLPRPRPRPHMMPRP | -0.135
RRIRMRPPRLPRPRPRPHNCPRP | -0.0504
RRIRMRPPRLPRPRPRPHNIPRP | -0.0272
